In test [1] the target is T1, human recombinant CD16a extracellular domain protein, amino acids 17-208 with F at position 176 (CD16a-F176) (human, UniProt P08637 17-208).
T1 construct: range 17-208; Made in-house in 293F cells; also called human CD16a (F176)
Kind of test: ELISA of crude VHH extracts of panned phage-library clones on coated antigen, anti-HA-HRP; positive = OD more than 5 times the control. On the technique in general: ELISA stands for enzyme-linked immunosorbent assay.

For test [2], the target named is T2, human recombinant FOLR1 extracellular domain protein, amino acids 25-233 (human, UniProt P15328 25-233).
T2 construct: range 25-233; Made in-house in 293F cells
T2 sequence (P15328 25-233 limits assumed): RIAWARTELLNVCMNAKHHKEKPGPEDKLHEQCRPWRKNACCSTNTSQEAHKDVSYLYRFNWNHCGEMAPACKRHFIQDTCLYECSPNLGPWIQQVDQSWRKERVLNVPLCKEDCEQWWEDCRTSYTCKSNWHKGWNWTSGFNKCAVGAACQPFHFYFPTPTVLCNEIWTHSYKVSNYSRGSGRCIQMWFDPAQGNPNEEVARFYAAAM
Kind of test: phage display panning and clone ELISA as in Examples 1-4.

For test [3], the target named is T3, human recombinant Nkp46 extracellular domain protein, amino acids 22-254 (human, UniProt O76036 22-254).
T3 construct: range 22-254; Made in-house in 293F cells
T3 sequence (O76036 22-254 limits assumed): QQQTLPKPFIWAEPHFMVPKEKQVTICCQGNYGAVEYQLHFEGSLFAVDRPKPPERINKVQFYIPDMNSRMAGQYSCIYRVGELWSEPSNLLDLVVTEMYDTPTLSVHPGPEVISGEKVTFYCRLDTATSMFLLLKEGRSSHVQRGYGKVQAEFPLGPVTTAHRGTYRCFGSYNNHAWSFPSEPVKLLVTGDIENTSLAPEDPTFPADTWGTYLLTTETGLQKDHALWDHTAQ
The description is as above.

Test [4] addresses T4, human recombinant CD16a extracellular domain protein, amino acids 17-208 with V at position 176 (CD16a-V176) (human, UniProt P08637 17-208).
T4 construct: range 17-208; Made in-house in 293F cells; also called human CD16a (V176)
Kind of test: ELISA of crude VHH extracts of panned phage-library clones on coated antigen, anti-HA-HRP; positive = OD more than 5 times the control.

T4 sequence (P08637 17-208 F176V limits assumed): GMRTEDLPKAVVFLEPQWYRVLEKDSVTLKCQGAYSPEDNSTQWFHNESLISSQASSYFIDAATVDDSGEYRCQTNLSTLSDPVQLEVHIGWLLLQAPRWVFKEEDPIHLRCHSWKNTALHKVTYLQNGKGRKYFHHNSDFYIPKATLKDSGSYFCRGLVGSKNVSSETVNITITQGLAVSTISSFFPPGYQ
T1 sequence (P08637 17-208 limits assumed): as the sequence (P08637 17-208 F176V limits assumed) above, with V160F counted along it

B1: anti-CD16a single-domain antibody clone 15E2 (VHH, crude extract from pMECS) (VHH)
VHH: QVQLVESGGGLVQAGDSLRLSCAASGGTFRIYAMGWFRQAPGKEREFVGSISMMRGITDYAESVKGRFTISRDNAKFTMYLQMNTLKPEDTAVYYCAIRERPPPMGWGLAGISYDYWGQGTQVTVSS
notes: Crude antibody extract of an E. coli TG1 clone; not shown: C-terminal tag(s) from the pMECS vector (HA tag detected with anti-HA-HRP, tag for nickel-column purification)
As for B1, in test [1], the binding result was “binds”.

B2: FOLR1-4F4 single-domain antibody (VHH)
VHH: QVQLVESGGGSVQAGGSLRLSCAASDGTYRRYCMGWFRQAPGKEREKVAAIYTGDGTTYYADSVKGRFTISQENAKNTMYLQMNSLKPEDTAMYYCAADRSGCSVAWSYSSFEDWGQGTQVTVSS
notes: Parental (not humanized) clone as screened
On to B2, for which the binding result in test [2] was “binds”.

B3: Nkp46-7F10 single-domain antibody (VHH)
VHH: QVQLVESGGGLVQAGGSLRLSCAASGRTFSSYAMGWFRQAPGKEREFVAGISWSGDSTYYADSVKGRFTISRDNAKNTVGLQMNSLKPEDTAVYYCAAASGQVQTVVVVTDRWYHYWGQGTQVTVSS
notes: as for B2
Turning to B3, the binding result in test [3] is “binds”.

B4: anti-CD16a single-domain antibody clone 4B5 (VHH, crude extract from pMECS) (VHH)
VHH: QVQLVESGGGLVQAGGSLRLSCAASGGTFRIYAMGWFRQAPGKEREFVGSISMMRGITDYAESVKGRFTISRDNAKFTMYLQMNSLKSEDTAVYYCAKAVDKSPYGGWGWGPYDDWGQGTQVTVSS
notes: as for B1
Consider B4, for which the binding result in test [1] is on record as “binds”.

B5: anti-CD16a single-domain antibody clone 14A3 (VHH, crude extract from pMECS) (VHH)
VHH: QVQLVESGGGLVQPGGSLRLSCEVSGRTFSYLALGWFRQAPGKEREFVAAASWGGGSTGYADSVKGRFAISRDNVKNTQYLQMNSLKPEDTAVYYCVVGRRFKGSVYYTPNEYEYWGQGTQVTVSS
notes: as for B1
For the molecule B5, in test [4], the binding result is listed as “binds”.

B6: anti-CD16a single-domain antibody clone 23D1 (VHH, crude extract from pMECS) (VHH)
VHH: QVQLVESGGGLVQAGGSLRLSCAVSGRTFSYLAMGWFRQAPGKEREFVAASSWGGGTSGYADSVKGRFAISRDNAKNTQYLQMNSLKPEDTAVYYCVVGRRFKGSVYYTPNEYEYWGQGTQVTVSS
notes: as for B1
B6: the binding result in test [4] was “binds”.

B7: anti-CD16a single-domain antibody clone 13G6 (VHH, crude extract from pMECS) (VHH)
VHH: QVQLVESGGGLVQPGGSLRLSCAASGRTFRIYAMGWFRQAPGKEREFVGSIRLMRGITDYADSVKGRFTISRDNAKFTMYLQMNTLKPEDTAVYYCAAVGSGGDFYTPSTSGEYRYWGQGTQVTVSS
notes: as for B1
As to B7, the binding result in test [4] is given as “binds”.

The record behind these values is patent EP4814013A1 (Nanjing Regenecore Biotech Co., Ltd., dated 2026).
